In the nanobody polyreactivity screen of Harvey et al. (2022):

experiment: yeast display, Sf9 membrane polyspecificity reagent, FACS + sequencing; frameworks hold sequencing errors
In short: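 After 36–48 hours of galactose induction, yeast (Saccharomyces cerevisiae BJ5465) displaying a synthetic nanobody library were stained at 4 °C for 1 hour with 10% biotinylated, detergent-solubilized Sf9 membrane reagent. Streptavidin microbeads enriched the stained cells before FACS sorting into low and high (top ~1%) gates on anti-HA and streptavidin fluorescence. Each clone's polyreactivity label reflects its gate of origin.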

| Sequence | polyreactivity (PSR sort gate) |
| --- | --- |
| QVQLVESGGGLVQAGGSLRLSCAASGRIFFWYVMGWYRQAPGKERELVAAISSGGRTYYADSVKGRFTISRDNAKNTVYLQMNSLKPEDTAVYYCNVEEYHVRADIGYSNYGYWGQGTQVTVSS | low polyreactivity |
| QVQLVESVGGLVQAGGSLRLSCAASGRTFAAYAMGWYRQAPGKERELVAGITSSSVRTYYADSVKGRFTISRDNAKNTVYLQMNSLKPEDTAVYYCNARADGSSSRWRPYSKFYYWGQGTQVTVSS | low polyreactivity |
| QVHLVESGGGLVQAGGSLRLSCAASRSTFVNYAMGWYRQAPGKERELVAGISRSGGSTYYADSVKGRFTISRDNAKNTVYLQMNSLKPDDTAVYYCAKRYGRLTRYDYWGQGTQVNVSS | high polyreactivity |
| QVQLVESGGGLVQAGGSLRLSCAASGSTFPYNARGWYRQAPGKETELVAAISSSGGSTYYADSVKGRFTISRDNAKNTVYLQMNSLKPVDTEVYYCNAVLRYSIYPSSSFSYVGYYYWGQGTQVSVSS | high polyreactivity |
| QVQLVESGGGLVQAGGSLRLSCAASGRSFYLYAMGWYRQAPGKERELVAGITSGGRTNYADSVKGRFTISRDNAKNTVYLQMNSLKPEDTAVYYCAAGSRRYKYDYWGQGTQVTVSS | high polyreactivity |
| QVQLVESGGGLVQAGGSLRLSCAASGSIFSYYAMGWYRQAPGKERELVAAISKRGASTYYADSVKGRFTISRDNAKNTVYLQMNSLKPEDTAVYYCNRVLYDHSFPYNRGYDYWGQGTQVTVSS | high polyreactivity |
| QVQLVESGGGLVQAGGSLRLSSAASGRIFQLYTMGWYRQAPGKEREMVAAITSGTSTSYADSVKGRFTISRDNAKNSVYLQMNSLKPEDTAVYYCNKGSVSYCSVFVPYESDYWGQGTQVTVSS | low polyreactivity |
| QVKLVESGGGLVQAGGSLRLSCAASGRIFYYNAMGWYRQAPGKERELVSAIRVRGGSTYYADSVKGRFTISRDNAKNTVYLQMNSLNPEDTAVYYCNSSDYKISATNAVVRYYYWGQGTQVTVSS | high polyreactivity |
| QVQLVESGGGLVQAGGTLRLSCAASGIIFLVNAMGWYRQAPGKERELVATITSGGSTYADSVKGRFTISRDNAKNTVYLQMNSLKPEDTAVYYCAAVRRRRNSYGYWGQGTQVTVSS | high polyreactivity |
| QVQLVESGGGLVQAGGSLRLSCAASGFIRGYYDMGWYRQAPGKERELVAAISSGGRTYYADSVKGRFTISRDNAKNTVYLQMNSLKPEDTAVYYFNAYAPRRRFDYWGQGTQVTVSS | high polyreactivity |
| QVQLVESGGGLVQAGGSLRLSCAASGSIFKYYAMGWYRQAPGKERELVAAISNGGSTNYADSLKGRFTISRDNAKNTVYLQMNSLKPEDTAVYYCAAGWFGYSAKYDYWGQGTRVTVSS | high polyreactivity |
| QVQLVESGGGLVQAGGSLRLICAASGRTFLPNAMGWYRQAPGKERELVAVITSAGSTYYADSVKGRFTISRDNAKNTVYLQRNSLKPEDTAVYYCSADYLDYDLGDPPPRYYYWGQGTQVTVSS | low polyreactivity |
| QVQLVESGGGLVQAGGSLRLSCAASGSIDGRYAMGWYRQAPGKERELVAVITSGGSTNYADSVKGRFTISRDNAKNTVYLQMKSLKPEDTAVYYCAVRPYALHRLADQPGGDDYWGQGTQVTVSS | low polyreactivity |
| QVQLVESGGGLVQAGGSLRLSCAASGFTFGNNGMGWYRQAPGKERELVATISWSGGSTYADSVKGRFTISRDNAKNTVYLQMNSLKPEDTAVYYCAAPYLSLYWYDYWGQGTQVTVSS | low polyreactivity |
| QVQLQERGGGLVQAGGSLRLSCAASGIIYADGFMGLYRQAPGKEREFVATITGGGTSNYADSVKGRFTISRDNAKNTVYLQMNSLKPEDTAVYYCAVYFAWTIGFTYLGQGTQVTVSS | high polyreactivity |
| QVQLVESGGGLVQAGGSLRLSCAASGLIFQYYVMGWYRQAPGKERQLVAAISARGGGTYYADSVKGRFTISRDNAKNTVYLQMNSLKPEDTAVYYCAADPVYAGPGYDYWGQGTQVTVSS | high polyreactivity |
| QVQLVESGGGLVQAGGSLRLSCAASGSIFLWNAMGWYRQAPGKERELVAAITWRGGRTSYADSVKGRFTISRDNAKNTVYLQMNSLKPEDTAVYYCAKEAHPPWTGQDVFRSYDYWGQGTQVTVSS | low polyreactivity |
| QVQLVESGGGLVQAGGSLRLSCAASGFTFSSYAMGWSRQAPGKERELVAAISTRGGSTYYADSVKGRFTISRDNAKNTVYLQMNSLKPEDTAVYYCATGGRGGRRYEYWGQGTQVTVSS | low polyreactivity |
| QVQLVESGGGLVQAGGSLRLTCAASGIIFSYNAMGWYRQAPGKERELVAAIRWSGDSTYYADSVKGRFTISRDIAKNTVYLQMNSMKPEDTAVYYCAAEFFLSYPRYEYWGQGTQVTVSS | low polyreactivity |
| QVQLVESGGGLDQAGGSLRLSCAASGSTFWVNTMGWYRQAPGKERELVAGITSNGGSTSYADSVKGRFTISRDNAKNSVYLQMNSLKREDTAVYYCNADTYPDYWAYLYDYWGQGTQVTVSS | low polyreactivity |
| QVQLVESGGGLVQAGGSLRLSCAASGRIFAFSAMGWSRQAPGKERELVAAISSGGSTYYADSVKGRFTISRDNAKNTVYLQMNSLKPEDTAVYYCAASGLYYYRYRYYYWGQGTQVTVSS | high polyreactivity |
| QVQLVESGGGLVQAGGSIRLSCADSGIIFQANAMGWYRQAPRKERELVAGISRGSSTNYADSVKGRFTISLDNAKNTVYLQMNSLKPEDTAVYYCSAGFYYRPFYGSSHSYGYWGQGTQVTVSS | low polyreactivity |

| Sequence | polyreactivity (PSR sort gate) |
| --- | --- |
| QVQLVESGGGLVQAGGSLRLSCAASGSIIYFNAMGWYRQAPGKERELVAAITRSGGSTYYADSVKGRFTISRDNAKNTVYLQMNSLKPEDTAVYYCAAEVWRTYSVEYDYWGQGTQVTVSS | high polyreactivity |
| QVQLVESGGGLDQAGGSLRLSCAASGLIFYDKMGWYRQAPRKERELVAAISSSCGSTSYADSVKGRFTISRDNAKHTVYLQMNSLKPEDTAVYYCAADSYPAYLGFVGFDYWGQGTQVTVSS | low polyreactivity |
| QVQLVESGGGLVQAGGSLRLSCAASGRISIIYAMGWYRQAPGKERELVARISGSGGSTNYADSVKGRFTISRDNAKNTVYLQMISLKPEDTAVYYCAAVPWRIHKYYYWGQGTQVTVSS | high polyreactivity |
| LVQLVQSGGGLVQAGGSLRLSCAASGRTFIGYAMGWYRQAPGKERELVAAITSDGGTNYADSVKGRFTISRDNAKNTVNLLMNSLKPEDTAVYDCAARRRVSYHLYGYWGQGTQVTVSS | high polyreactivity |
| QVQLVESAGGLVQAGGSLRLSFAASGRISGRYAMRWYRQAPGKEREVVAAITSRGGRTYYADSVKGRFTISRDNAKNTVYLQMNSLKPEDTAVYYCAKDAGSRTVREFGYWGQGTHVTVSS | high polyreactivity |
| QVQLVESGGGLVQAGGSLRLSCAASGSIFASNAMGWYSPAPGKERELVAAINSGDSTNYADSVKGRFTISRDNAKNTVYLQMNSLKPEDTAVYYCARGLEERYDYWGQGTQVTVSS | low polyreactivity |
| QVQLVESGGGLVQAGGSLRLSCAASGYTFGYNAMGWYRQAPGKERELVAAISWNAGSTYYADSVKGRFTISRDNAKNTVYLQMNSLKPEDTAVYYCATEGTYIYNYWGQGTQVTVSS | low polyreactivity |
| QVQHVESGGGLVQAGGILRLSSAASGSTFVKNGMGWSRQAPGKERELVAAISGRRGSTYYADSVKGRFTISRDNAKNTVYLQMNSLKPEDTAVYYCNKAYSVAYTYNYWGQGTQVTVSS | high polyreactivity |
| QVQLVESWGGLVQAGGSLSLSCAASGRIIARNAMGWYRQAPGKEREFVAAISFSDGSTYYADSVKGRFTISRDNAKNTVYLQMNSLKPEDSAVYYCNKGASPDDYDYWGQGTQVTVSS | low polyreactivity |
| QVQLVESGGGLVQAGGSLRLSCAASGRTFSVYTMGWYREAPGQERELVAAISSTGRTNYADSVKGRFTISRDNAKNTVYLQMNSQKPEATAVYDCNAGVRNSYTRHALVTAYYLYYYWRQGTQVTVSS | high polyreactivity |
| QVQLVESCGGLLQAGGSLRLSCAASGRTFTQYAMGCYRQAPGKERELVAAISWSDDITYYADSVKGRCTISRDIAQYTVYLQMNSLKPEDTAVYYCATEGYWGYDYDYWGQGTQVTVSS | high polyreactivity |
| QVQLVESGGGLVQAGGSLRLSCAASGRTFRYYTKGWSRQAPGKERELVADINTSVGSTDYADSVKGRFTISRDNAKNTVYLQMNSLKPEDTAVYYCAKVGFTYYAVDYWGQGTQVTVSS | high polyreactivity |
| QVQLVESGGGLVQAGGSLRLSCAASGRTLFVYAMGWYRQAPGKEREFVAAIRWRGGSTYYADSVKGRFTISRDNAKNTVYLQMNSLKPEDTAVYYCAADTYWVKTDYLYGYWGQGTQVTVSS | high polyreactivity |
| QVQLVESGGGLVQAGGSLRLSCAASGITFPYYALGWYRQAPGKERELVARISRGGRTNYADSVKGRFTISRDNAKNTVYLQMNSLKPEDTAVYYCNAGYTYYKYGYWGQGTQVTVSS | high polyreactivity |
| QVQLVESGGGLVQAGGSLRLSCAASGRIFPTYAMGWYRQAPGKERELVASITSGVDTYYADSVKGRFTISRDNAKNTVYLQMNSLKPEDTAVYYCAARFFVWWKYDYWGQGTQVTVSS | low polyreactivity |
| QVQLVESGGGLVQAGGSLRLSCAASGSTFYPYAMGWYRQAPGKEREFVARISVSAGRTYYADSVKGRFTISRDNAKNTVYLQMNSLKPEDTAVYYCAKGIPTFYGSPRYDYWGQGTQVTVSS | low polyreactivity |
| QVHLVESGGGLVQAGGSLRLSCAASGRTFNRTAMGSYRQAPGKERELVAAMSWRGDSTSYADSVKGRFTISRDNAKNTVYLQMNSLKPADTAVYYCATAHDYAFYRYWYVPSEYYYWGQGTQVTVSW | low polyreactivity |
| QVQLLESGGGLVQAGGSLGCAASGNISTRSEMGWYRQAPGKEREFVATINSGGITNYADSVKGRFTISRDNENNTVYLGMNSLKPEDTAVYYRAVYVYFSDPYDYWGQGTQVTVSS | low polyreactivity |
| QVQLVESGGCLVQAGGSLRLSCAASGSIFDAYDKGWYRQAPGKERELVAAISRSGASTYYADSVKGRFTISRDNAKNTVYLQMNSLKPEDTAVYSCAARDRQRVSYGYWGQGTQVTVTS | high polyreactivity |
| QVQLVESGGGLVQAGGSLRLSCAASGRIFQANAKGWYRQAPGKERELVAAINSGDSTYYADSVKGRFTISRDNAKNTVYLQMNSLKPEDTAVYYCAADAVFQYYTYYYWGQGTQVTVSS | low polyreactivity |
| QVQLVESRGGLVQAGGSLRLSCAASGSTFGQYPMGSYRQEPGKERELVATITSPGSTNYADSVKGRFTISRDNAKNTVYFQMNSLKPEDSAVYYCNAVTGYWDGTEARQPYDYWGQGTQVTVSS | low polyreactivity |
